Source: article PMC11073785, “YeeD is an essential partner for YeeE-mediated thiosulfate uptake in bacteria and regulates thiosulfate ion decomposition” (PLOS Biology, 2024)

B1: StYeeE (Winmispira thermophila DSM 6578) (protein)
chain: MIWTGLLVGFLFGIVLQRGRICFNSAFRDVLLFKDNYLFKLAVFTLALEMILFVLLSQVGLMQMNPKPLNLVGNIIGGFVFGLGMVLAGGCASGVTYRVGEGLTTAWFAALFYGLGAYATKSGAFSWWLSWVGQFKSPLSVEESAYYVKGAGPTISSVLGLNPWIPALVIAALFILWAFGTKTTSRETKFNWKIASVCLALVAGLGFITSTLSGRKYGLGITGGWINLFQGFLTNSPLNWEGLEIVGIILGAGVAAAVAGEFKLRMPKNPVTYLQVGIGGLLMGIGAVTAGGCNIGHFLTGVPQLALSSWLASIFFILGNWTMAWILF
notes: 1-328 aa with C-terminal …-His8, His-tag removed by TEV; expressed in E. coli C41(DE3), purified in DDM, reconstituted in E. coli total lipid liposomes
B2: Spirochaeta thermophila YeeD (WT), His6-tagged (natural protein, UniProt G0GAP7 1-80, looked up)
chain: MANYQVSKEIDVRGEVCPIPDVEAKRAVQSANDGEIILVRIDYPLSKERIPETVKKLGSEVLEIEEAAPGEWNIYIKVKK
notes: YeeD of Spirochaeta thermophila, residues 1-80, UniProt G0GAP7; 11.3 kDa with the tag; As purified, C17 is partly modified (mass spectrometry: -SH, -S-O2-/-S-S-, -S-SO3-); also called StYeeD; StYeeD(WT); source: E. coli C41(DE3), purified (Ni-NTA, Superdex 200)
B3: StYeeD(E9A), His6-tagged (natural protein, Spirochaeta thermophila, UniProt G0GAP7 1-80, looked up)
chain: MANYQVSKAIDVRGEVCPIPDVEAKRAVQSANDGEIILVRIDYPLSKERIPETVKKLGSEVLEIEEAAPGEWNIYIKVKK
notes: YeeD of Spirochaeta thermophila, residues 1-80, UniProt G0GAP7, with E9A; source: E. coli C41(DE3), purified (Ni-NTA, Superdex 200)
B4: StYeeD(K8A), His6-tagged (natural protein, Spirochaeta thermophila, UniProt G0GAP7 1-80, looked up)
chain: MANYQVSAEIDVRGEVCPIPDVEAKRAVQSANDGEIILVRIDYPLSKERIPETVKKLGSEVLEIEEAAPGEWNIYIKVKK
notes: YeeD of Spirochaeta thermophila, residues 1-80, UniProt G0GAP7, with K8A; source: E. coli C41(DE3), purified (Ni-NTA, Superdex 200)
B5: StYeeD(Y43A), His6-tagged (natural protein, Spirochaeta thermophila, UniProt G0GAP7 1-80, looked up)
chain: MANYQVSKEIDVRGEVCPIPDVEAKRAVQSANDGEIILVRIDAPLSKERIPETVKKLGSEVLEIEEAAPGEWNIYIKVKK
notes: YeeD of Spirochaeta thermophila, residues 1-80, UniProt G0GAP7, with Y43A; source: E. coli C41(DE3), purified (Ni-NTA, Superdex 200)
B6: StYeeD(E63A), His6-tagged (natural protein, Spirochaeta thermophila, UniProt G0GAP7 1-80, looked up)
chain: MANYQVSKEIDVRGEVCPIPDVEAKRAVQSANDGEIILVRIDYPLSKERIPETVKKLGSEVLAIEEAAPGEWNIYIKVKK
notes: YeeD of Spirochaeta thermophila, residues 1-80, UniProt G0GAP7, with E63A; source: E. coli C41(DE3), purified (Ni-NTA, Superdex 200)
B7: StYeeD(R49A), His6-tagged (natural protein, Spirochaeta thermophila, UniProt G0GAP7 1-80, looked up)
chain: MANYQVSKEIDVRGEVCPIPDVEAKRAVQSANDGEIILVRIDYPLSKEAIPETVKKLGSEVLEIEEAAPGEWNIYIKVKK
notes: YeeD of Spirochaeta thermophila, residues 1-80, UniProt G0GAP7, with R49A; source: E. coli C41(DE3), purified (Ni-NTA, Superdex 200)
B8: StYeeD(V39A), His6-tagged (natural protein, Spirochaeta thermophila, UniProt G0GAP7 1-80, looked up)
chain: MANYQVSKEIDVRGEVCPIPDVEAKRAVQSANDGEIILARIDYPLSKERIPETVKKLGSEVLEIEEAAPGEWNIYIKVKK
notes: YeeD of Spirochaeta thermophila, residues 1-80, UniProt G0GAP7, with V39A; source: E. coli C41(DE3), purified (Ni-NTA, Superdex 200)
B9: StYeeD(L38A), His6-tagged (natural protein, Spirochaeta thermophila, UniProt G0GAP7 1-80, looked up)
chain: MANYQVSKEIDVRGEVCPIPDVEAKRAVQSANDGEIIAVRIDYPLSKERIPETVKKLGSEVLEIEEAAPGEWNIYIKVKK
notes: YeeD of Spirochaeta thermophila, residues 1-80, UniProt G0GAP7, with L38A; source: E. coli C41(DE3), purified (Ni-NTA, Superdex 200)
B10: StYeeD(V16A), His6-tagged (natural protein, Spirochaeta thermophila, UniProt G0GAP7 1-80, looked up)
chain: MANYQVSKEIDVRGEACPIPDVEAKRAVQSANDGEIILVRIDYPLSKERIPETVKKLGSEVLEIEEAAPGEWNIYIKVKK
notes: YeeD of Spirochaeta thermophila, residues 1-80, UniProt G0GAP7, with V16A; source: E. coli C41(DE3), purified (Ni-NTA, Superdex 200)
B11: StYeeD(L45A), His6-tagged (natural protein, Spirochaeta thermophila, UniProt G0GAP7 1-80, looked up)
chain: MANYQVSKEIDVRGEVCPIPDVEAKRAVQSANDGEIILVRIDYPASKERIPETVKKLGSEVLEIEEAAPGEWNIYIKVKK
notes: YeeD of Spirochaeta thermophila, residues 1-80, UniProt G0GAP7, with L45A; source: E. coli C41(DE3), purified (Ni-NTA, Superdex 200)
B12: StYeeD(E15A), His6-tagged (natural protein, Spirochaeta thermophila, UniProt G0GAP7 1-80, looked up)
chain: MANYQVSKEIDVRGAVCPIPDVEAKRAVQSANDGEIILVRIDYPLSKERIPETVKKLGSEVLEIEEAAPGEWNIYIKVKK
notes: YeeD of Spirochaeta thermophila, residues 1-80, UniProt G0GAP7, with E15A; source: E. coli C41(DE3), purified (Ni-NTA, Superdex 200)
B13: StYeeD(E48A), His6-tagged (natural protein, Spirochaeta thermophila, UniProt G0GAP7 1-80, looked up)
chain: MANYQVSKEIDVRGEVCPIPDVEAKRAVQSANDGEIILVRIDYPLSKARIPETVKKLGSEVLEIEEAAPGEWNIYIKVKK
notes: YeeD of Spirochaeta thermophila, residues 1-80, UniProt G0GAP7, with E48A; source: E. coli C41(DE3), purified (Ni-NTA, Superdex 200)

Each molecule was assayed on O=S(O)(O)=S (assay: solid-supported membrane electrophysiology of proteoliposomes, negative peak area). Settings: transport, Na2S2O3 1.25-40 mM exchanged against equal Na2SO4, pH 6.7, Michaelis-Menten fit.
Assay type: biochemical, Winmispira thermophila

Row | Molecule | Km [µM]
1 | B1 | 626.1

The molecules below were run against T1, StYeeD (Winmispira thermophila, UniProt G0GAP7) (assay: H2S release with fluorescent probe HSip-1; adduct by MALDI-TOF MS). Settings: 500 μM thiosulfate, 24.1 μM YeeD, 70 μM β-ME, pH 8.0, 37°C; covalent (C17).
T1 construct: gene Spith_0735; expressed in E. coli C41(DE3)
T1 sequence (G0GAP7 1-80): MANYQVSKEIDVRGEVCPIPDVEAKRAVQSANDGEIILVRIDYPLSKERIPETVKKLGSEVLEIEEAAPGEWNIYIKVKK
Assay type: biochemical

Row | Molecule | H2S release with fluorescent probe HSip-1; adduct by MALDI-TOF MS
2 | O=S(O)(O)=S [thiosulfate ion] | suggesting that YeeD catalyzes the decomposition of thiosulfate as a substrate

What follows are molecules tested against T2, Spirochaeta thermophila YeeE (Spirochaeta thermophila, UniProt G0GAP6 1-328) (assay: BLI; StYeeD-His6 (4.82 μM) loaded on a Ni-NTA biosensor, 11.05 μM StYeeE in solution; Octet N1, room temperature; 20 mM Tris-HCl pH 8.0, 300 mM NaCl, 0.1% DDM, 1 mM β-ME; 120 s association, 120 s dissociation; local fitting; 3 measurements. WT was also run with 300 mM Na2SO4 (binding similar) or 300 mM Na2S2O3 (binding significantly decreased)). Settings: both partners purified.
T2 construct: YeeE of Spirochaeta thermophila, residues 1-328, UniProt G0GAP6; Membrane protein, kept in 0.1% DDM; The His tag was removed with TEV(S219V) protease; also called StYeeE; TsuA; source: E. coli C41(DE3), purified from the membrane fraction in DDM (Ni-NTA, TEV cleavage, Superdex 200)
T2 sequence (looked up): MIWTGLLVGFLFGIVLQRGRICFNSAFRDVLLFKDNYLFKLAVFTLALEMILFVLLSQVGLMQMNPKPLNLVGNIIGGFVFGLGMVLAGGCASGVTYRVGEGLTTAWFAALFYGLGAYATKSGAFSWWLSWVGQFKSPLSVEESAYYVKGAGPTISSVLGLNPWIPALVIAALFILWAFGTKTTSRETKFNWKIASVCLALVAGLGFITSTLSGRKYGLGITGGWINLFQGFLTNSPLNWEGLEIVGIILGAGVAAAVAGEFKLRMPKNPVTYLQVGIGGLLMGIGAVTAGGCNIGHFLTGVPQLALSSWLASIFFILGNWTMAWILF

Row | Molecule | Kd [µM] | koff [s⁻¹] | kon [M⁻¹ s⁻¹]
3 | B2 | 1.6 ± 0.2 | 0.027 ± 0.0029 | 17000 ± 2900
4 | B3 | 4.6 ± 0.22 | 0.027 ± 0.0021 | 6000 ± 580
5 | B4 | 4.3 ± 0.61 | 0.037 ± 0.0019 | 8900 ± 1100
6 | B5 | 20 ± 2.1 | 0.16 ± 0.017 | 8200 ± 950
7 | B6 | 1.7 ± 0.074 | 0.03 ± 0.0013 | 18000 ± 260
8 | B7 | 17 ± 23 | 0.12 ± 0.16 | 9000 ± 1400
9 | B8 | 5.4 ± 0.3 | 0.032 ± 0.00058 | 5800 ± 330
10 | B9 | 1.7 ± 0.055 | 0.032 ± 0.003 | 18000 ± 1300
11 | B10 | 5.6 ± 0.86 | 0.093 ± 0.023 | 17000 ± 1600
12 | B11 | 1.2 ± 0.1 | 0.035 ± 0.004 | 29000 ± 1600
13 | B12 | 9.5 ± 4.2 | 0.071 ± 0.033 | 7500 ± 1300
14 | B13 | 4.5 ± 6.2 | 0.14 ± 0.2 | 17000 ± 10000

Target: the molecule itself
Assay: SEC; purified His-tagged StYeeD(WT) on Superdex 200 Increase 10/300 GL, 10 mM Tris-HCl pH 8.0, 300 mM NaCl; two peaks compared with gel filtration markers
Settings: not given

Row | Molecule | stoichiometry N
15 | B2 | 2
